Results reported in US20080255046A1 (7TM PHARMA A S, published 2008).
Where no end group is shown, it is not given here. [ ]: non-standard residue; d: D form. Met(O) = CS(=O)CC[C@H](N)C(=O)O

B1: [Lys4,Leu17,Met-sulfoxide30,Gln34]hPP (peptide)
peptide: APLKPVYPGDNATPEQLAQYAADLRRYIN[Met(O)]LTRQRY-NH2
modifications: N-terminus assumed
SMILES: CC[C@H](C)[C@H](NC(=O)[C@H](Cc1ccc(O)cc1)NC(=O)[C@H](CCCNC(=N)N)NC(=O)[C@H](CCCNC(=N)N)NC(=O)[C@H](CC(C)C)NC(=O)[C@H](CC(=O)O)NC(=O)[C@H](C)NC(=O)[C@H](C)NC(=O)[C@H](Cc1ccc(O)cc1)NC(=O)[C@H](CCC(N)=O)NC(=O)[C@H](C)NC(=O)[C@H](CC(C)C)NC(=O)[C@H](CCC(N)=O)NC(=O)[C@H](CCC(=O)O)NC(=O)[C@@H]1CCCN1C(=O)[C@@H](NC(=O)[C@H](C)NC(=O)[C@H](CC(N)=O)NC(=O)[C@H](CC(=O)O)NC(=O)CNC(=O)[C@@H]1CCCN1C(=O)[C@H](Cc1ccc(O)cc1)NC(=O)[C@@H](NC(=O)[C@@H]1CCCN1C(=O)[C@H](CCCCN)NC(=O)[C@H](CC(C)C)NC(=O)[C@@H]1CCCN1C(=O)[C@H](C)N)C(C)C)[C@@H](C)O)C(=O)N[C@@H](CC(N)=O)C(=O)N[C@@H](CCS(C)=O)C(=O)N[C@@H](CC(C)C)C(=O)N[C@H](C(=O)N[C@@H](CCCNC(=N)N)C(=O)N[C@@H](CCC(N)=O)C(=O)N[C@@H](CCCNC(=N)N)C(=O)N[C@@H](Cc1ccc(O)cc1)C(N)=O)[C@@H](C)O
notes: Human PP with Lys at 4, Leu at 17, oxidised Met at 30 and Gln at 34; also called [Lys4, Leu17, Met(O)30, Gln34]-PP; [Lys4,Leu17,oxidised Met30,Gln34]hPP
B2: [Lys4,Leu17,Ser30,Gln34]hPP (peptide)
peptide: APLKPVYPGDNATPEQLAQYAADLRRYINSLTRQRY-NH2
notes: also called [Lys4, Leu17, Ser30, Gln34]-PP; peptide (i)
B3: [Lys4,Leu17,Thr30,Gln34]hPP (peptide)
peptide: APLKPVYPGDNATPEQLAQYAADLRRYINTLTRQRY-NH2
notes: Human PP with Lys at 4, Leu at 17, Thr at 30 and Gln at 34; also called [Lys4, Leu17, Thr30, Gln34]-PP; peptide (ii)
B4: PYY (Peptide YY), human sequence (peptide)
peptide: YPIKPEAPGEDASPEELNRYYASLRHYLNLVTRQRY
modifications: C-terminally amidated
notes: also called PYY1-36; human PYY
B5: NPY (Neuropeptide Y), human sequence (peptide)
peptide: not shown
modifications: C-terminally amidated

Biological target: T1, rhesus monkey Y1 receptor (rhesus monkey)
T1 construct: whole, on cells; also called rhY1
Test: competition binding on CHO cells expressing rhesus monkey Y1 (125I-PYY), compared with Y2
Description: (§1) The stable transfected CHO cells are transferred to 48-well culture plates one day prior assay at a density of 2,500 cells per well aiming at 5-8% binding of the radioactive ligand. […] Binding assays are performed in 0.5 ml of a 50 mM Hepes buffer, pH 7.4, supplemented with 1 mM CaCl2, 5 mM MgCl2, and 0.1% (w/v) bovine serum albumin and 100 μg/ml bacitracin. Non-specific binding is determined as the binding in the presence of 1 μM of unlabeled human PYY. Cells are washed twice in 0.5 ml of ice-cold buffer and 0.5-1 ml of lysis buffer (8 M Urea, 2% NP40 in 3 M acetic acid) is added and the bound radioactivity is counted in a gamma counter. Determinations are made in triplicates. […] IC50 values were calculated using a standard pharmacological data handling software, Prism 3.0 (graphpad Sofware, San Diego, USA). Ki-values are calculated according the Cheng-Prusoff equation (Cheng Y, Prusoff W H., Biochem Pharmacol. 1973): Ki=[IC50/(1+[L]/Kd)], where Ki is the equilibrium inhibitory constant for the cold ligand, Kd is the equilibrium constant for the radiolabeled (hot) ligand and L is the concentration of the radiolabeled ligand used.
Protocol as for the Y2 affinity assay, except that CHO cells stably expressing rhesus monkey Y1 are used and cells are transferred to culture plates at a density of 23,000 cells per well.

| Binder | fold selectivity (affinity at Y2 against Y1) |
| --- | --- |
| B1 | ≥ 100 fold |
| B2 | ≥ 100 fold |
| B3 | ≥ 100 fold |

Biological target: T2, rhesus monkey Y2 receptor (rhesus monkey, UniProt Q9GK74 1-381)
T2 sequence (looked up): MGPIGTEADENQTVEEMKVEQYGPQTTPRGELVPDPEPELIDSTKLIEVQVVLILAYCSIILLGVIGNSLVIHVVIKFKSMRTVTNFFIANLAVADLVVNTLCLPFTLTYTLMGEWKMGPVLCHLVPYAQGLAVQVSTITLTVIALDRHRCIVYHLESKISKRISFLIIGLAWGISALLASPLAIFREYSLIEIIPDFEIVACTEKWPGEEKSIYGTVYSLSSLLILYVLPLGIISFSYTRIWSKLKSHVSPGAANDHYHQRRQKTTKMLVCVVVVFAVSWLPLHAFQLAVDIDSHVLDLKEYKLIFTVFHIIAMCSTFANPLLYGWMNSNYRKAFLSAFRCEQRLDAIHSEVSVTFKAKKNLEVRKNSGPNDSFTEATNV
Test: cell-based or functional assay

| Binder | IP3 EC50 values at Y2 | IP3 EC50 values at Y2 (nM) |
| --- | --- | --- |
| B4 | 0.18 nM |  |
| B1 | 0.5 nM |  |
| APLEPVYPGDNATPEQMAQYAADLRRYINMLTRPRY-NH2 [PP (Pancreatic Polypeptide), human sequence] |  | > 1000 nM |
| B2 | 0.67 nM |  |
| B3 | 0.71 nM |  |
| B5 | 0.6 nM |  |

Biological target: T2, rhesus monkey Y2 receptor
Test: competition binding with 125I-PYY on CHO cells stably expressing rhesus monkey Y2
Description: as §1

| Binder | Ki |
| --- | --- |
| B4 | 0.09 nM |
| B1 | 0.06 nM |
| B2 | 0.51 nM |
| B3 | 0.47 nM |
| B5 | 0.11 nM |

Biological target: rhesus monkey Y4 receptor (rhesus monkey)
Test: cell-based or functional assay

| Binder | fold selectivity in the potency assay (Y2 against Y4) |
| --- | --- |
| B1 | ≥ 20 fold |
| B2 | ≥ 20 fold |
| B3 | ≥ 20 fold |

Biological target: T1, rhesus monkey Y1 receptor
Test: cell-based or functional assay

| Binder | fold selectivity in the potency assay (Y2 against Y1) |
| --- | --- |
| B1 | ≥ 100 fold |
| B2 | ≥ 100 fold |
| B3 | ≥ 100 fold |

Biological target: T3, rhesus monkey Y4 receptor (rhesus monkey)
T3 construct: whole, on cells; also called rhY4
Test: competition binding on CHO cells expressing rhesus monkey Y4 (125I-PP), compared with Y2
Description: as §1

| Binder | fold selectivity (affinity at Y2 against Y4) |
| --- | --- |
| B1 | ≥ 20 fold |
| B2 | ≥ 20 fold |
| B3 | ≥ 20 fold |
